From patent US20140178935A1 (AVEO PHARMACEUTICALS, published 2014)
Positions count from the first letter of the chain named.

B1: HE2B8-4 (LRMR2B8HC + IgG1 constant region G1m(3) allotype allele 1, plus LRMR2B8LC + Kappa constant region Km(3) allotype allele 1) (antibody, V domains shown)
VH: QVQLVQPGAEVKKPGTSVKLSCKASGYTFTTYWMHWVRQAPGQGLEWIGEINPTNGHTNYNQKFQGRATLTVDKSTSTAYMELSSLRSEDTAVYYCARNYVGSIFDYWGQGTLLTVSS
VL: DIVMTQSPDSLAMSLGERVTLNCKASENVVSYVSWYQQKPGQSPKLLIYGASNRESGVPDRFSGSGSATDFTLTISSVQAEDVADYHCGQSYNYPYTFGQGTKLEIKR
notes: Human Engineered 2B8 variant, human IgG1 kappa, made in HEK293E cells
B2: anti-hHGF monoclonal antibody 2B8 (antibody, mouse IgG1, kappa)
heavy: QVQLQQPGAELVKPGTSVKLSCKASGYTFTTYWMHWVNQRPGQGLEWIGEINPTNGHTNYNEKFKSKATLTVDKSSSTAYMQLSSLTSEDSAVYYCARNYVGSIFDYWGQGTTLTVSSAKTTPPSVYPLAPGSAAQTNSMVTLGCLVKGYFPEPVTVTWNSGSLSSGVHTFPAVLQSDLYTLSSSVTVPSSTWPSETVTCNVAHPASSTKVDKKIVPRDCGCKPCICTVPEVSSVFIFPPKPKDVLTITLTPKVTCVVVDISKDDPEVQFSWFVDDVEVHTAQTQPREEQFNSTFRSVSELPIMHQDWLNGKEFKCRVNSAAFPAPIEKTISKTKGRPKAPQVYTIPPPKEQMAKDKVSLTCMITDFFPEDITVEWQWNGQPAENYKNTQPIMDTDGSYFVYSKLNVQKSNWEAGNTFTCSVLHEGLHNHHTEKSLSHSPGK
light: NIVMTQSPKSMSMSVGERVTLSCKASENVVSYVSWYQQKPAQSPKLLIYGASNRNTGVPDRFTGSGSATDFTLTISSVRAEDLADYHCGQSYNYPYTFGGGTRLEIKRADAAPTVSIFPPSSEQLTSGGASVVCFLNNFYPKDINVKWKIDGSERQNGVLNSWTDQDSKDSTYSMSSTLTLTKDEYERHNSYTCEATHKTSTSPIVKSFNRNEC
notes: Murine IgG1 kappa from hybridoma; also called murine 2B8; mouse 2B8

Legend:
Experiment in all cases: SPR, antibody immobilized, HGF protein injected, 25 C
[1] = molecular target: T1, recombinant mhm chimeric HGF protein containing human W507-L585 HGF sequence disposed within mouse HGF … (mouse-human-mouse chimera, UniProt Q08048 56-728)
T1 construct: CHO supernatant; also called mhm chimera (W507-L585); MHM chimera (507-585)
T1 chain: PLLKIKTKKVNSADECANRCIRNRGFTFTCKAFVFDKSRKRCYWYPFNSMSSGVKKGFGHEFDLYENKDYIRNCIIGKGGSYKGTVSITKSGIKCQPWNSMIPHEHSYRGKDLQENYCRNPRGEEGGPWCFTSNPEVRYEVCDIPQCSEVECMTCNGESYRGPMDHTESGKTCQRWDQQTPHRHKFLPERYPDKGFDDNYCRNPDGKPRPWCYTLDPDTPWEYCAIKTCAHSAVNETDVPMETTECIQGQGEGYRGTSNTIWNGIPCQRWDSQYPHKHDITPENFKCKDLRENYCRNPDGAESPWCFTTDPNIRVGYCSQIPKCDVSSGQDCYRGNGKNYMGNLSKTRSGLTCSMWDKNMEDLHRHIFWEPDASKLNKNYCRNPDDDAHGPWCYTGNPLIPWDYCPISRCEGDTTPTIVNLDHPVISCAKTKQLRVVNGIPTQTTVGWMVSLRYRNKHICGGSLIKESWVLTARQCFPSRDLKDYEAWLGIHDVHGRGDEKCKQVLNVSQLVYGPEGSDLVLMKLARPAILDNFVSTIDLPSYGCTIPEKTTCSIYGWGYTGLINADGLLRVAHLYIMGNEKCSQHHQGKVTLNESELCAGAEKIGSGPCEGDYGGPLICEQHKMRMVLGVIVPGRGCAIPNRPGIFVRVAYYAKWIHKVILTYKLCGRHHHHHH
Protocol: (§1) Analyses were performed at 25° C. using PBS (GIBCO, Catalog No. 14040-133) containing 0.05% surfactant P20 (BIAcore, Catalog No. R-1000-54), 2 mg/mL BSA (EMD, Catalog No. 2930) and 10 mg/mL CM-Dextran Sodium salt (Fluka, Catalog No. 86524) as running buffer. […] The resulting binding was determined as resonance units (RU) over baseline 30 seconds after the end of injection. […] Non-specific binding was monitored by comparing binding to a control surface.

[2] = molecular target: T2, recombinant mhm chimeric HGF protein containing the region I499-R556 of hHGF disposed between murine sequences (mouse-human-mouse chimera, UniProt Q08048 56-728)
T2 construct: also called mhm chimera (I499-R556)
T2 chain: T1 chain with Q443R, T445N, V446I, D499E, C502R, V505I, V508I, M523L
Protocol: as §1

[3] = molecular target: T3, recombinant mouse HGF (R&D Systems) (mouse, UniProt Q08048 33-728)
T3 construct: Bought protein, construct not described; also called rmHGF (R&D Systems); murine HGF
T3 sequence (Q08048 33-728 limits assumed): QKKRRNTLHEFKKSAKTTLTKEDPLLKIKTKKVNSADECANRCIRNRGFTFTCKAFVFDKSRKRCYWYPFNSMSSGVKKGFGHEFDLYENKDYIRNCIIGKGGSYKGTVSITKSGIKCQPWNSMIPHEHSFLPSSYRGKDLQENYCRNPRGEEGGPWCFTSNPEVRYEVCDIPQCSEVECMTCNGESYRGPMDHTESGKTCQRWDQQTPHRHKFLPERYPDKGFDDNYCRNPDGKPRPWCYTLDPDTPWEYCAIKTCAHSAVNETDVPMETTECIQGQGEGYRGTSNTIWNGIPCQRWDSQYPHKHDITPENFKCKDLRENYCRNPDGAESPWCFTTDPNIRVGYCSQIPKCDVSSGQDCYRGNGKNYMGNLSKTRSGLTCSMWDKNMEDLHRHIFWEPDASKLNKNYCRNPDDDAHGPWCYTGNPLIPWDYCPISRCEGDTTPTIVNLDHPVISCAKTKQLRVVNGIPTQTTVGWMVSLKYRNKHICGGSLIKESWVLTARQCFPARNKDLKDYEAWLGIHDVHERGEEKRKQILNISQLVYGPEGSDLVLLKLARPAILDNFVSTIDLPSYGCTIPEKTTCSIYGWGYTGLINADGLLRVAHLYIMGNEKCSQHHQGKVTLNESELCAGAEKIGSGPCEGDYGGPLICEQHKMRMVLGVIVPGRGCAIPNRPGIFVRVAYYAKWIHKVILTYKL
Protocol: as §1

[4] = molecular target: hHGF-Fc G555E (recombinant hHGF protein containing a glycine to glutamate substitution at position 555) (human)
hHGF-Fc G555E (recombinant hHGF protein containing a glycine to glutamate substitution at position 555) (human), sequence (chain, as listed by the source G555E G555E limits assumed): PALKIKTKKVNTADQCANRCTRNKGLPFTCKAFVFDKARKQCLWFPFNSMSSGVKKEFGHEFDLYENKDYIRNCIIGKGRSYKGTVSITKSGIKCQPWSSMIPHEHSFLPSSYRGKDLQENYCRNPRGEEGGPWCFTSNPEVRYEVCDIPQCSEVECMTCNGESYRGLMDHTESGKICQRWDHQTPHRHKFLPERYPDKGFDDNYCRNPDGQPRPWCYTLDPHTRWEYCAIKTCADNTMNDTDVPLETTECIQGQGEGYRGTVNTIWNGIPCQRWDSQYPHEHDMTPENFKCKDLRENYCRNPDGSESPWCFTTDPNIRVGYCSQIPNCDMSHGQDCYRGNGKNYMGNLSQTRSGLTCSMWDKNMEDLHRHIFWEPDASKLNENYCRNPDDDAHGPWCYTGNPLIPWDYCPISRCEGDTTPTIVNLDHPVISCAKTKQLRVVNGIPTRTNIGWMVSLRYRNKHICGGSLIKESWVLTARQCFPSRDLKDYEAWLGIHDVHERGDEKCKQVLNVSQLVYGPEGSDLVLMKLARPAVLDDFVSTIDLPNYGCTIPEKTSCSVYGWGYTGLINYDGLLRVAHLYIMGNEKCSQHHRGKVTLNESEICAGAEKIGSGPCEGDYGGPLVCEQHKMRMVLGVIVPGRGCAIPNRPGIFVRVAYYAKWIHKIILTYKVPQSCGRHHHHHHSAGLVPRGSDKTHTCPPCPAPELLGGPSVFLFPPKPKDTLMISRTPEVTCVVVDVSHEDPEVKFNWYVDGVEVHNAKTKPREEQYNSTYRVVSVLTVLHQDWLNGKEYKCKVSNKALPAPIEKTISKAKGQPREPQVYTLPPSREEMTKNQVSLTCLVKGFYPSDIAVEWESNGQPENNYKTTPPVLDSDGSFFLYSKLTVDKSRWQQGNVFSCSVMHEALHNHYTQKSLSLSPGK
Protocol: (§2) Each antibody was immobilized on a carboxymethylated dextran CM5 sensor chip (BIAcore, Catalog No. BR-1006-68) by amine coupling (BIAcore, Catalog No. BR-1000-50) using a standard coupling protocol according to manufacturer's instructions.
as §1, with “surface where mouse IgG (Rockland, Catalog No. 010-0102) was immobilized using the same amine coupling procedure.” for “surface.”

[5] = molecular target: hHGF-Fc C561R (recombinant hHGF protein containing a cysteine to arginine substitution at position 561) (human)
hHGF-Fc C561R (recombinant hHGF protein containing a cysteine to arginine substitution at position 561) (human), sequence (chain, as listed by the source C561R C561R limits assumed): as the sequence (chain, as listed by the source G555E G555E limits assumed) above, with E501G, C507R counted along it
Protocol: as §2
as §1, with “surface where mouse IgG (Rockland, Catalog No. 010-0102) was immobilized using the same amine coupling procedure.” for “surface.”

Binder	binding result [1]	binding result [2]	binding result [3]	binding result [4]	binding result [5]
B1	binds	binds	no binding		
B2	binds	binds	no binding	binds	binds
